Results as given in patent US20050265995A1 (MUSC FOUNDATION FOR RESEARCH DEVELOPMENT, published 2005).

Target: T1, dipeptidylpeptidase IV (DPPIV) expressed on rat proximal tubular epithelial cells (PTEC) (rat, UniProt P14740 1-767)
T1 construct: whole, on cells; also called K9/9 antigen; glycoprotein expressed on rat glomerular epithelial cells and PTEC
Test: in vivo biodistribution of 125I-labelled protein in rats, 48 h after tail vein injection
Method: Biodistribution studies were performed using standard procedures for determining tissue distribution of injected radiolabeled proteins (41, 33). […] After 48 h, a blood sample was taken, and major organs were removed, shredded, washed in PBS containing 10 mM EDTA, weighed, and counted. Targeting specificity was determined as percentage of cpm per gram of tissue divided by total injected cpm per gram of body weight.

T1 sequence (P14740 whole entry): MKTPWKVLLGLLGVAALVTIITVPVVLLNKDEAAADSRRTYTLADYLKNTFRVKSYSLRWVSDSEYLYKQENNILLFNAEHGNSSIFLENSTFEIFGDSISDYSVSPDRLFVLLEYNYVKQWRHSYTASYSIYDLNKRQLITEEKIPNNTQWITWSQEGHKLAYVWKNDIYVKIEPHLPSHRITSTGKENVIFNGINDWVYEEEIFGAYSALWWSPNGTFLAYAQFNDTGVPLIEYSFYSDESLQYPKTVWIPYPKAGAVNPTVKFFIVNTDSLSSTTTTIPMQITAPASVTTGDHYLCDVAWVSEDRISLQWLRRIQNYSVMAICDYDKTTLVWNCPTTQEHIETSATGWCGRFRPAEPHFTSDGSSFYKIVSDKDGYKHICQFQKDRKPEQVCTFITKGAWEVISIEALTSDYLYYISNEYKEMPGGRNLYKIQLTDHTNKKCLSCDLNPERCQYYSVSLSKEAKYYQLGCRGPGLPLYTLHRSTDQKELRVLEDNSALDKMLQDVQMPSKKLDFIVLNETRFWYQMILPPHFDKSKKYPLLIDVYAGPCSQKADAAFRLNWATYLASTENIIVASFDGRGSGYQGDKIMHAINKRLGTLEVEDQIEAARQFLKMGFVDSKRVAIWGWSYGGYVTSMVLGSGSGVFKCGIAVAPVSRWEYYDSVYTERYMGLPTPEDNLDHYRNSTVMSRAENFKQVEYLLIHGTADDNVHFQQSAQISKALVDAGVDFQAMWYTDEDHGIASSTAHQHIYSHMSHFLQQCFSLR

B1: soluble untargeted Crry (sCrry) (other, rat, UniProt Q63135 36-482, looked up)
chain: GQCPAPPLFPYAKPINPTDESTFPVGTSLKYECRPGYIKRQFSITCEVNSVWTSPQDVCIRKQCETPLDPQNGIVHVNTDIRFGSSITYTCNEGYRLIGSSSAMCIISDQSVAWDAEAPICESIPCEIPPSIPNGDFFSPNREDFHYGMVVTYQCNTDARGKKLFNLVGEPSIHCTSIDGQVGVWSGPPPQCIELNKCTPPHVENAVIVSKNKSLFSLRDMVEFRCQDGFMMKGDSSVYCRSLNRWEPQLPSCFKVKSCGAFLGELPNGHVFVPQNLQLGAKVTFVCNTGYQLKGNSSSHCVLDGVESIWNSSVPVCEQVICKLPQDMSGFQKGLQMKKDYYYGDNVALECEDGYTLEGSSQSQCQSDASWDPPLPKCVSQVICKLPQDMSGFQKGLQMKKDYYYGDNVALECEDGYTLEGSSQSQCQSDASWDPPLPKCVSRSNSG
modifications: 125I-iodinated in the biodistribution study
notes: extracellular domain; Untargeted control, expressed in Pichia; also called soluble Crry
binding result: no binding
